Changes are numbered by the printed parent chain.

The labels stand for the following.
T1: human GIP receptor (human) (UniProt P48546)
T1 sequence (looked up): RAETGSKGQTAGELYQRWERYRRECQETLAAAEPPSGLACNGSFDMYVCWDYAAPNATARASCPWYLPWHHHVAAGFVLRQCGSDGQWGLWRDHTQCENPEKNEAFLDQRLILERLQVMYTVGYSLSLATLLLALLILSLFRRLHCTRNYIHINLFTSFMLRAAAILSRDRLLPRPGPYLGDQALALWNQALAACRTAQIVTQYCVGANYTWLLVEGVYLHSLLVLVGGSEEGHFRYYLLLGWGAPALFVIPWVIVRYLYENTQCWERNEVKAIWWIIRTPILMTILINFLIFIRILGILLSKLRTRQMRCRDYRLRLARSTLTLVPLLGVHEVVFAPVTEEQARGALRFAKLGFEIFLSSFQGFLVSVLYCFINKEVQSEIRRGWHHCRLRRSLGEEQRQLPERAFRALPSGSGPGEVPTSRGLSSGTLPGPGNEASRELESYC

B1: Example 408 (peptide)
chain: YXQGTXTSDYSILLDKKAQXAFIEYLEEGGPSSGAPPPE
modifications: synthetic construct; SITE 2: note = 2-Aminoisobutyric Acid; SITE 6: note = alpha-methyl-2-fluoro-L-phenylalanine; SITE 17: note = Lysine is chemically modified through conjugation of the epsilon-amino group of the Lysine side chain with (2-[2-(2-Amino-ethoxy)-ethoxy]-acetyl)-(gamma-Glu)-CO-(CH2) 16-
B2: Example 396 (peptide)
chain: B1 chain with L13X
modifications: synthetic construct; SITE 2: note = 2-Aminoisobutyric Acid; SITE 6: note = alpha-methyl-L-phenylalanine; SITE 13: note = alpha-methyl-leucine; SITE 17: note = Lysine is chemically modified through conjugation of the epsilon-amino group of the Lysine side chain with (2-[2-(2-Amino-ethoxy)-ethoxy]-ace)
B3: Example 397 (peptide)
chain: B1 chain with L13X, K16X
modifications: not fully specified; synthetic construct; SITE 2: note = 2-Aminoisobutyric Acid; SITE 6: note = alpha-methyl-L-phenylalanine; SITE 13: note = alpha-methyl-leucine; SITE 16: note = L-ornithine; SITE 17: note = Lysine is chemically modified through conjugation of the epsilon-amino group of the Lysine side chain with (2-[2)
B4: Example 400 (peptide)
chain: B1 chain with L13X
modifications: synthetic construct; SITE 2: note = 2-Aminoisobutyric Acid; SITE 6: note = alpha-methyl-2-fluoro-L-phenylalanine; SITE 13: note = alpha-methyl-leucine; SITE 17: note = Lysine is chemically modified through conjugation of the epsilon-amino group of the Lysine side chain with (2-[2-(2-Amino-ethoxy)-et)
B5: Example 406 (peptide)
chain: B1 chain with E39S
modifications: synthetic construct; SITE 2: note = 2-Aminoisobutyric Acid; SITE 6: note = alpha-methyl-2-fluoro-L-phenylalanine; SITE 17: note = Lysine is chemically modified through conjugation of the epsilon-amino group of the Lysine side chain with (gamma-Glu)2-CO-(CH2)16-CO2H; SITE 20: note = 2-Aminoisobutyric
B6: Example 409 (peptide)
chain: B1 chain with I12S, E39S
modifications: synthetic construct; SITE 2: note = 2-Aminoisobutyric Acid; SITE 6: note = alpha-methyl-2-fluoro-L-phenylalanine; SITE 17: note = Lysine is chemically modified through conjugation of the epsilon-amino group of the Lysine side chain with (2-[2-(2-Amino-ethoxy)-ethoxy]-acetyl)-(gamma-Glu)-CO-(CH2) 16-
B7: Example 35 (peptide)
chain: YXQGTFTSDFSKXLDKKAQXAFIEYLLEGGPSSGEPPPEEG
modifications: not fully specified; Aib, αMeL; acylated Lys; C-terminal amide; synthetic construct; SITE 2: note = 2-Aminoisobutyric Acid; SITE 13: note = alpha-methyl-leucine; SITE 17: note = Lysine is chemically modified through conjugation of the epsilon-amino group of the Lysine side chain with (2-[2-(2-Amino-ethoxy)-ethoxy]-acetyl)-(gamma-Glu)-CO-(CH2) 18-CO2H; SITE 20: n
B8: Example 405 (peptide)
chain: B7 chain with L27A, E28A, E39S, E40G, G41E
modifications: synthetic construct; SITE 2: note = 2-Aminoisobutyric Acid; SITE 13: note = alpha-methyl-leucine; SITE 17: note = Lysine is chemically modified through conjugation of the epsilon-amino group of the Lysine side chain with (epsilon-K)2-(gamma-Glu)-CO-(CH2)18-CO2H; SITE 20: note = 2-Aminoisobutyric Aci
B9: Example 36 (peptide)
chain: B7 chain with E39T
modifications: C-terminal amide; acylated lysine; synthetic construct; SITE 2: note = 2-Aminoisobutyric Acid; SITE 13: note = alpha-methyl-leucine; SITE 17: note = Lysine is chemically modified through conjugation of the epsilon-amino group of the Lysine side chain with (2-[2-(2-Amino-ethoxy)-ethoxy]-acetyl)-(gamma-Glu)-CO-(CH2) 18-CO2H; SITE 20: n
B10: Example 401 (peptide)
chain: YXQGTXTSDXXIXLDXKAQXXFIEXLIEGGPSSGEPPPSEG
modifications: synthetic construct; SITE 2: note = 2-Aminoisobutyric Acid; SITE 6: note = alpha-methyl-2-fluoro-L-phenylalanine; SITE 10: note = 3-(4-Pyridyl)-L-alanine; SITE 11: note = alpha-methyl-L-serine; SITE 13: note = alpha-methyl-leucine; SITE 16: note = L-ornithine; SITE 17: note = Lysine is chemically mo
B11: Example 403 (peptide)
chain: B10 chain with X10Y, I27E, S39E
modifications: synthetic construct; SITE 2: note = 2-Aminoisobutyric Acid; SITE 6: note = alpha-methyl-2-fluoro-L-phenylalanine; SITE 11: note = alpha-methyl-L-serine; SITE 13: note = alpha-methyl-leucine; SITE 16: note = L-ornithine; SITE 17: note = Lysine is chemically modified through conjugation of the epsilon

Chain of hGLP-1R (P43220 24-463): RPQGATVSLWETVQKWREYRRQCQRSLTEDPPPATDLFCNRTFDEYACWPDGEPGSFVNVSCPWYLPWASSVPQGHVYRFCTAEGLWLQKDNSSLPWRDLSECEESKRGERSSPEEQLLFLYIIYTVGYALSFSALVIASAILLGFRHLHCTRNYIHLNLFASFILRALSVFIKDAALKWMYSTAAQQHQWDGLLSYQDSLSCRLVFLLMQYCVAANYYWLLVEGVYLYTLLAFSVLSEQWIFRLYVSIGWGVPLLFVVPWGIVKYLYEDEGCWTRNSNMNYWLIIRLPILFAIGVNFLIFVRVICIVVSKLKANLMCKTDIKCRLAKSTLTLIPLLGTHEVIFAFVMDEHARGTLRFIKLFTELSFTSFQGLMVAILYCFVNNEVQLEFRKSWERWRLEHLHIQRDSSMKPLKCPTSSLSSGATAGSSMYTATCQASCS

The first test addresses hGLP-1R (Homo sapiens, UniProt P43220). Nature of the test: cell-based or functional assay.
Molecule B1 came in with a Relative cAMP EC50 of 0.253 nM and a cAMP Rel EC50, nM (1% HSA) of 37.9 nM.

In turn, B2 returned a Relative cAMP EC50 of 0.293 nM and a cAMP Rel EC50, nM (1% HSA) of 38.2 nM.

In turn, B3 gave a Relative cAMP EC50 of 0.2 nM and a cAMP Rel EC50, nM (1% HSA) of 34.9 nM.

In the case of B4, the Relative cAMP EC50 was 0.253 nM and the cAMP Rel EC50, nM (1% HSA) was found to be 29.1 nM.

B5 registered a Relative cAMP EC50 of 0.208 nM and a cAMP Rel EC50, nM (1% HSA) of 27.8 nM.

For B6, the Relative cAMP EC50 came out at 0.484 nM and the cAMP Rel EC50, nM (1% HSA) was found to be 41.7 nM.

B7: the Relative cAMP EC50 worked out at 3.05 nM and the cAMP Rel EC50 (in the presence of 1% HSA) worked out at 1130 nM.

For the molecule B8, the Relative cAMP EC50 came to 1.48 nM and the cAMP Rel EC50, nM (1% HSA) stood at 285 nM.

For B9, the Relative cAMP EC50 stood at 3.57 nM and the cAMP Rel EC50 (in the presence of 1% HSA) stood at 1360 nM.

As to B10, the Relative cAMP EC50 was 0.213 nM and the cAMP Rel EC50, nM (1% HSA) was determined as 12 nM.

Molecule B11 returned a Relative cAMP EC50 of 0.396 nM and a cAMP Rel EC50, nM (1% HSA) of 70 nM.

Another test concerns the target T1, human GIP receptor (human). Nature of the test: cell-based or functional assay.
Turning to B1, the Relative cAMP EC50 amounted to 0.0329 nM and the cAMP Rel EC50, nM (1% HSA) turned out to be 15.3 nM.

Molecule B2 showed a Relative cAMP EC50 of 0.024 nM and a cAMP Rel EC50, nM (1% HSA) of 9.5 nM.

In the case of B3, the Relative cAMP EC50 is 0.0247 nM and the cAMP Rel EC50, nM (1% HSA) came to 10.1 nM.

The molecule B4 had a Relative cAMP EC50 of 0.0158 nM and a cAMP Rel EC50, nM (1% HSA) of 3.86 nM.

The molecule B5 showed a Relative cAMP EC50 of 0.0233 nM and a cAMP Rel EC50, nM (1% HSA) of 10.5 nM.

On to B6, for which the Relative cAMP EC50 was 0.363 nM and the cAMP Rel EC50, nM (1% HSA) came to 66.6 nM.

Take B7: the Relative cAMP EC50 came out at 0.55 nM and the cAMP Rel EC50 (in the presence of 1% HSA) was 194 nM.

In turn, B8 gave a Relative cAMP EC50 of 0.28 nM and a cAMP Rel EC50, nM (1% HSA) of 32.1 nM.

Consider B9, for which the Relative cAMP EC50 amounted to 0.482 nM and the cAMP Rel EC50 (in the presence of 1% HSA) was 170 nM.

Regarding B10, the Relative cAMP EC50 worked out at 0.0183 nM and the cAMP Rel EC50, nM (1% HSA) worked out at 1.71 nM.

As for B11, the Relative cAMP EC50 was found to be 0.0827 nM and the cAMP Rel EC50, nM (1% HSA) worked out at 36.9 nM.

The target in another test is human glucagon receptor (human) (UniProt P47871). Nature of the test: cell-based or functional assay.
Chain of human glucagon receptor (human) (P47871 26-477): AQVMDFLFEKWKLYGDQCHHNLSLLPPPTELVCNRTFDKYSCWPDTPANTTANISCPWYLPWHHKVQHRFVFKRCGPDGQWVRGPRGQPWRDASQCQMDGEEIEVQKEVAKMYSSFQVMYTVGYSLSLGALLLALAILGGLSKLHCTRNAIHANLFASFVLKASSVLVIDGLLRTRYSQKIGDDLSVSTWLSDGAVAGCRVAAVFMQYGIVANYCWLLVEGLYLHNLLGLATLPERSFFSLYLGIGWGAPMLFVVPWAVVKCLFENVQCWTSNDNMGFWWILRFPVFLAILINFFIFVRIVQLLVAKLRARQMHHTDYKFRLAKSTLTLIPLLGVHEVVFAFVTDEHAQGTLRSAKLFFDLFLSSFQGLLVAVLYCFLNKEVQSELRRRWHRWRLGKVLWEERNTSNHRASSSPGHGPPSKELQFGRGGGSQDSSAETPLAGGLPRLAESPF
As to B1, the Relative cAMP EC50 stood at 1.93 nM and the cAMP Rel EC50, nM (1% HSA) is 472 nM.

With B2, the Relative cAMP EC50 is 4.99 nM and the cAMP Rel EC50, nM (1% HSA) came to 468 nM.

For B3, the Relative cAMP EC50 came to 5.22 nM and the cAMP Rel EC50, nM (1% HSA) is 1110 nM.

The molecule B4 displayed a Relative cAMP EC50 of 2.53 nM and a cAMP Rel EC50, nM (1% HSA) of 265 nM.

In turn, B5 registered a Relative cAMP EC50 of 1.23 nM and a cAMP Rel EC50, nM (1% HSA) of 254 nM.

B6 yielded a Relative cAMP EC50 of 7.92 nM and a cAMP Rel EC50, nM (1% HSA) of 1190 nM.

For B7, the Relative cAMP EC50 turned out to be 4.32 nM and the cAMP Rel EC50 (in the presence of 1% HSA) came to 1390 nM.

B8 yielded a Relative cAMP EC50 of 15.5 nM and a cAMP Rel EC50, nM (1% HSA) of 2530 nM.

Turning to B9, the Relative cAMP EC50 is 4.32 nM and the cAMP Rel EC50 (in the presence of 1% HSA) worked out at 1330 nM.

B10 returned a Relative cAMP EC50 of 1.99 nM and a cAMP Rel EC50, nM (1% HSA) of 111 nM.

Take B11: the Relative cAMP EC50 was determined as 1.59 nM and the cAMP Rel EC50, nM (1% HSA) came out at 527 nM.
